According to the DeepSol protein solubility set:

experiment: soluble on expression in E. coli; label from the status in PepcDB or PDB records

Soluble on expression in E. coli, not soluble:
MGSDKIHHHHHHMRYRPVIGLEIHVQLSTKTKAFCSCPADVFELPPNTAICPVCTGQPGALPVPNEEMIRFAVKTALALNCKIHKYSRFDRKNYFYPDLPKGYQISQYFYPIATEGFLEIDGDEGRKKVRIRRLHLEEDAGKLVHEGDSITRASYSLVDMNRCGVPLIEIVTEPDISSPREARVFMEKLRSIVRYLGVSTGDMEKGALRCDANISVVDTETGRQSNRVEVKNMNSFRFVERALEYEFERIVKAMERGEDVERETRGWDMATKITVSMRGKEEESDYRYFPEPDIPPVVLSDEYLEEVKKELPELPDEKAERFMREYGLPEYDAKVLTSSKELAEFFEECVKVVNRPKDLSNWIMTEVLRELNERNIEITESKLTPQHFADLFKLMDEGKISIKIAKEIFPEVFETGKMPSQIVEEKGLTQINDEKLIEELVKKAMEQNPKAVQDYKSGKKKAAGFFVGYVMRETKGKANPELTNRIIQKLLEGE
MGSDKIHHHHHHMRYVKLHSEYFPEFFNRLKEVGRVYGPVRHNSTYRFEEVNSIDELSLDYTRTILPPKKFFIRPRDAMFKIQKNEVTEVDGDGKFVLFGVHSCDIHGIKILDKVYLSNPPDPYYERRRKNAFIVGISCMPDEYCFCKSLGTDFAMDGFDIFLHELPDGWLVRVGSVKGHEFVWENQDIFDDVTEEDLRNFKEFEEKRAKAFKKSLNKEGLADILDLAFTSKVWKKYAEKCLGCGNCTIVCPTCRCYEVCDTWVRAYEALRMRRYDSCFMPTHGLVAGGHNFRPTRLDRFRHRYYCKNYFDPEAGFNCVGCGRCDEFCPARIEHVKVLDEVREGLI
MGSDKIHHHHHHMSATEKRRYEVLRAIVADYIASQEPVGSKSLLERHKLNVSSATIRNDMSVLESDGFIVQEHASSGRVPTERGYRLFVDSIHDIKPLSLAERRAILGFLEGGVDLEDVLRRSVQLLSQLTHQAAVVQLPTLKTARVKHCEVVPLSPMRLLLVLITDTGRVDQRNVELEEPLAAEEVNVLRDLLNGALGEKTLTAASDALEELAQQAPTDIRDAMRRCCDVLVNTLVDQPSDRLILAGTSNLTRLSRETSASLPMVLEALEEQVVMLKLLSNVTDLDQVRVHIGGENEDIELRSATVITTGYGSQGSALGGLGVVGPTYMDYSGTISKVSAVAKYVGRVLAGE
MGSDKIHHHHHHMSCIDCAVKNCNKMDKTYPDFCLTTHMDEEVLNEAMECYNEDENRKVTIAAAEVEYENYCKHTRVEEIMDFAKKINAKKIGIATCVGLLKESRILADILRRHGFEVYGVGCKAGTQKKTSVGIPECCEGVGVNMCNPILQAKLLNKAKTDLNVVVGLCVGHDSLFYKYSEALTTTAVTKDRVLGHNPVAALYTADSYYSKLKKSEEE
MGSDKIHHHHHHMSDDLGSELQLLYLFVHLVNAGSFSQAAKELDMPIATVSRKLAKLEEKLDKQLFMRSTRKLRLTEEGLALFQRYQSVIAQFDELSGVGSDKPEGTLRIAAPISIISIIFIRALNEFGRLYPDIRLHISQSNELVDLIDKGIDVAIVGGAQPDSSWVSSTLGELDYCLFATPEYLAQAPKLTHPNDLEAHQLIKVWPLFNWHLKHPNGESFYFNGPTKLTLTDLHGAIESALDHGGILYGPELFVKQQIKEDRLKVLLPEWVGEQRRISILYHQRSQQPLKVRVFIEFMQSKAPELFSMA
MGSDKIHHHHHHMSDFFIETTKADKVLPTNSRPKFFAFGIPSYTNLGDQAVSLAQRKYIENEFPEYQYIEILEDDNDEGIEAVKKIITSQDIVSFVGGGNMGSLYTNHEAARRKVFSTFVNNLTISFPQSIHFEDTPSGLKEQKLSQEAYGKNRHLFLIARDAQSYHRMQTTFDNQVLFTPDMVLYFKASHYDFKRSGALFVLRHDGEKVVGDSLIDSMKKMLDNNRPLKRTDTVLDTVKRITPINREKLFKEELELFAHQEIVITDRWHAMVFSVLTGTPCLLFGNSYGKGKHAYFDWLEHINWIAYTDEEDLDRIDQQIQRLIKTKEHAYDIRPDFKQLHDLIKLHSKK
